Reference: the Human Domainome abundance scans (Beltran et al. 2025)
± gives the uncertainty stated by the source.

B1: Serine/threonine-protein kinase A-Raf, residues 21 to 89; numbered along this chain, P10398 (parent)
chain: VKVYLPNKQRTVVTVRDGMSVYDSLDKALKVRGLNQDCCVVYRLIKGRKTVTAWDTAIAPLDGEELIVE

Variants of: B1
Assay: abundance fitness (aPCA) (normalised: wild type 0, dead -1); higher = more abundant; growth selection in yeast, the domain comes from the species named
Conditions: Homo sapiens

Row | Variant | abundance fitness
1 | W54T | -0.797 ± 0.14
2 | L44W | -0.059 ± 0.067
3 | T11R | -0.652 ± 0.063
4 | L5R | -1.1 ± 0.12
5 | L29S | -0.558 ± 0.072
6 | Y4A | -0.217 ± 0.061
7 | Q36M | -0.18 ± 0.082
8 | T56H | -0.151 ± 0.086
9 | V13F | -0.795 ± 0.2
10 | C38E | 0.118 ± 0.091
11 | R48V | 0.05 ± 0.07
12 | C39W | -0.841 ± 0.38
13 | E69Q | -0.6 ± 0.17
14 | R10G | -0.158 ± 0.045
15 | P6W | -1.01 ± 0.37
16 | D17V | -0.186 ± 0.065
17 | N7H | -0.272 ± 0.065
18 | D62C | 0.13 ± 0.2
19 | G63S | -0.107 ± 0.098
20 | V21C | -0.707 ± 0.22
21 | E65G | -0.294 ± 0.072
22 | K8V | -0.723 ± 0.071
23 | R48G | -0.479 ± 0.056
24 | R10D | -0.281 ± 0.092

Row | Variant | abundance fitness
25 | V21G | -1.04 ± 0.18
26 | D55Q | -0.024 ± 0.045
27 | V1E | -0.833 ± 0.22
28 | P60M | 0.084 ± 0.068
29 | D17P | 0.075 ± 0.057
30 | L44N | -0.082 ± 0.17
31 | V15A | -0.017 ± 0.052
32 | V15W | -0.093 ± 0.054
33 | I58F | -0.021 ± 0.12
34 | D62R | -0.049 ± 0.042
35 | V31R | 0.004 ± 0.046
36 | E65F | -0.607 ± 0.25
37 | S24G | 0.149 ± 0.049
38 | K8A | -0.042 ± 0.048
39 | V3C | -0.274 ± 0.12
40 | W54S | -0.808 ± 0.14
41 | V3S | -0.856 ± 0.09
42 | R10W | 0.067 ± 0.048
43 | W54E | -0.96 ± 0.13
44 | C38W | -0.179 ± 0.059
45 | D37S | -0.196 ± 0.079
46 | G33E | -0.26 ± 0.22
47 | T11I | -0.072 ± 0.1
48 | N35M | -0.321 ± 0.081

Row | Variant | abundance fitness
49 | T14P | -0.005 ± 0.09
50 | L44Y | -0.037 ± 0.2
51 | Q36V | -0.028 ± 0.065
52 | R43D | -0.939 ± 0.43
53 | A59W | -0.14 ± 0.065
54 | G47M | -1.06 ± 0.2
55 | W54R | -0.879 ± 0.1
56 | K8H | -0.102 ± 0.11
57 | V21F | -0.392 ± 0.12
58 | K2D | -0.416 ± 0.26
59 | L44F | -0.197 ± 0.13
60 | K27Q | -0.39 ± 0.37
61 | T14Y | -0.415 ± 0.37
62 | G18A | -0.513 ± 0.056
63 | R32L | 0.046 ± 0.07
64 | R32N | 0.141 ± 0.13
65 | L5P | -0.778 ± 0.18
66 | D55P | -0.852 ± 0.099
67 | S24M | -0.04 ± 0.075
68 | G18S | -0.239 ± 0.053
69 | Y4R | 0 ± 0.035
70 | K2Y | -0.313 ± 0.19
71 | Q9S | -0.11 ± 0.059
72 | V21H | -0.996 ± 0.3

Row | Variant | abundance fitness
73 | Y22A | 0.056 ± 0.058
74 | M19L | -0.154 ± 0.049
75 | Y22G | 0.105 ± 0.058
76 | D23E | 0.085 ± 0.057
77 | K46Q | -0.009 ± 0.067
78 | R32C | -0.162 ± 0.21
79 | T52K | -0.356 ± 0.072
80 | P60Y | 0.043 ± 0.14
81 | K2G | -0.37 ± 0.079
82 | D62N | -0.051 ± 0.21
83 | L34P | -0.833 ± 0.15
84 | V3Q | -1.02 ± 0.23
85 | K30P | -0.957 ± 0.19
86 | Y22L | -0.04 ± 0.047
87 | D55V | -0.773 ± 0.062
88 | V41W | -0.549 ± 0.1
89 | G63F | -0.279 ± 0.1
90 | P60A | 0.147 ± 0.066
91 | I58M | -0.004 ± 0.065
92 | C38H | -0.019 ± 0.11
93 | E64V | -0.259 ± 0.12
94 | K49E | -0.847 ± 0.2
95 | E69R | -0.635 ± 0.19
96 | G47R | -0.841 ± 0.11

Row | Variant | abundance fitness
97 | I45F | -0.179 ± 0.074
98 | L29G | -0.941 ± 0.11
99 | K49M | -0.22 ± 0.095
100 | Q36A | -0.043 ± 0.071
101 | T52V | 0.117 ± 0.059
102 | T11V | 0.038 ± 0.049
103 | G63P | -0.533 ± 0.11
104 | G33C | -0.694 ± 0.2
105 | P60D | 0.138 ± 0.12
106 | R32A | 0.088 ± 0.063
107 | A53H | -0.098 ± 0.07
108 | D26Q | 0.179 ± 0.098
109 | V21Y | -0.033 ± 0.31
110 | T11P | -0.979 ± 0.19
111 | E69N | -0.777 ± 0.21
112 | K8P | -1.02 ± 0.18
113 | L61S | -0.156 ± 0.065
114 | A59E | -0.068 ± 0.067
115 | K8E | 0 ± 0.043
116 | L44T | -0.169 ± 0.082
117 | D62I | -0.015 ± 0.12
118 | V12E | -0.066 ± 0.033
119 | R43V | -0.703 ± 0.096
120 | R43I | -1 ± 0.37

Row | Variant | abundance fitness
121 | D37E | -0.141 ± 0.15
122 | K2Q | -0.32 ± 0.062
123 | A28E | -0.195 ± 0.13
124 | I45K | 0.089 ± 0.18
125 | L25S | -0.891 ± 0.11
126 | G33S | -0.525 ± 0.089
127 | K49C | -0.672 ± 0.34
128 | V15I | -0.088 ± 0.17
129 | K49R | -0.135 ± 0.049
130 | D23P | -0.931 ± 0.23
131 | A53W | -0.728 ± 0.084
132 | N7F | -0.49 ± 0.055
133 | L25T | -0.978 ± 0.16
134 | V12C | -0.304 ± 0.099
135 | R16N | -0.147 ± 0.097
136 | G63C | -0.055 ± 0.07
137 | Q9P | -0.876 ± 0.15
138 | V1G | -0.744 ± 0.17
139 | V12W | -0.067 ± 0.048
140 | M19Q | 0.011 ± 0.08
141 | D17Q | 0 ± 0.06
142 | L25H | -1.06 ± 0.14
143 | N7M | -0.406 ± 0.039
144 | E64A | -0.206 ± 0.16

Row | Variant | abundance fitness
145 | V31W | -0.305 ± 0.072
146 | V21L | 0.093 ± 0.049
147 | R10T | 0.111 ± 0.063
148 | T56M | -0.095 ± 0.039
149 | C38G | 0.038 ± 0.052
150 | L34M | -0.135 ± 0.059
151 | V12H | -0.115 ± 0.14
152 | K8M | -0.107 ± 0.042
153 | T50A | -0.227 ± 0.31
154 | E65C | -0.122 ± 0.14
155 | D62M | -0.062 ± 0.087
156 | L61R | -0.108 ± 0.043
157 | E65M | -0.34 ± 0.13
158 | L44M | 0.069 ± 0.072
159 | V41H | -0.641 ± 0.25
160 | D26I | -0.146 ± 0.09
161 | R43L | -0.963 ± 0.12
162 | A59K | -0.076 ± 0.067
163 | G47N | -0.665 ± 0.27
164 | A53R | -0.149 ± 0.056
165 | V15K | -0.797 ± 0.19
166 | L44I | 0.073 ± 0.082
167 | R32F | -0.009 ± 0.26
